# What was measured:
# [1] = target: Renilla luciferase-IgG1 Fc fusion protein (Fc region of IgG1, amino acids 233–449); test: luciferase pull-down (bead-immobilized GST fusion protein, luciferase-tagged Fc-IgG); conditions: parent: est. 240000; read off a plot
# [2] = target: protein A/G (Ultralink protein A/G beads); test: luciferase pull-down (protein A/G beads, luciferase-tagged Fc-IgG); conditions: read off a plot
# [3] = target: GST-Ro52-Δ2 (C-terminal fragment of Ro52/TRIM21 fused to glutathione S-transferase) (UniProt P19474); test: luciferase pull-down (bead-immobilized GST fusion protein, luciferase-tagged Fc-IgG); conditions: read off a plot
# Sequence of UniProt P19474 (P19474 277-475, stated change not applied): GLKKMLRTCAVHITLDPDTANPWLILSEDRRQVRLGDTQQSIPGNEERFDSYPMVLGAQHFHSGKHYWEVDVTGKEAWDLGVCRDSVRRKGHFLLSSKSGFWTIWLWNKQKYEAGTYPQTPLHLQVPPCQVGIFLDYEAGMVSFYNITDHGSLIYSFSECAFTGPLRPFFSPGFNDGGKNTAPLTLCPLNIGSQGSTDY
substance,measurement,setting,value
GST-Ro52-Δ2 (C-terminal fragment of Ro52/TRIM21 fused to glutathione S-transferase) (from UniProt P19474) D355A,response,[1],3900 LU
"Renilla luciferase-IgG1 Fc fusion protein (Fc region of IgG1, amino acids 233–449) H435del; N436del; H437del",response,[2],3600 LU
same,response,[3],4200 LU

# Reference: article PMC5820281
